In patent US20140186823:

What was measured:
[1] = target: MspA NNN-RRK pore MS-(B1)8 (Mycobacterium smegmatis) (UniProt A0QR29); details: four 5' 2'-O-methyl-uracil on SEQ 19; 3' Cholesteryl-TEG on SEQ 20; mean S.D. of current levels; helicase translocation, +140 mV; unit assumed
[2] = target: MS-(B1-L88N)8 L88N (Mycobacterium smegmatis) (UniProt A0QR29); details: four 5' 2'-O-methyl-uracil on SEQ 19; 3' Cholesteryl-TEG on SEQ 20; mean S.D. of current levels; helicase translocation, +140 mV; unit assumed

Q: “NNNNTTTTTTTTTTTTTTTTTTTTTTTTTTTTTTTTTTTTTTTTTTTTTTTTTTGGTTGTTTCTGTTGGTGCTGATATTGCTTTTGATGCCGACCCTAAATTTTTTGCCTGTTTGGTTCGCTTTGAGTCTTCTTCGGTTCCGACTACCCTCCCGACTGCCTATGATGTTTATCCTTTGAATGGTCGCCATGATGGTGGTTATTATACCGTCAAGGACTGTGTGACTATTGACGTCCTTCCCCGTACGCCGGGCAATAACGTTTATGTTGGTTTCATGGTTTGGTCTAACTTTACCGCTACTAAATGCCGCGGATTGGTTTCGCTGAATCAGGTTATTAAAGAGATTATTTGTCTCCAGCCACTTAAGTGAGGTGATTTATGTTTGGTGCTATTGCTGGCGGTATTGCTTCTGCTCTTGCTGGTGGCGCCATGTCTAAATTGTTTGGAGGCGGTC / GCAATATCAGCACCAACAGAAACAACCTTTTTTTTTTTTTTTTTTTTTTTTTTTTTT” was tested. Which activity [1] did it give?
A: The activity was 2.3 pA.

Q: And the activity [2]?
A: The activity was 1.79 pA.
